Data taken from the nanobody polyreactivity screen of Harvey et al. (2022).

Assay: yeast display, Sf9 membrane polyspecificity reagent, FACS + sequencing; frameworks hold sequencing errors
In short: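 Galactose induction of a Saccharomyces cerevisiae BJ5465 synthetic nanobody display library ran 36–48 hours. The cells were then stained for 1 hour at 4 °C with 10% biotinylated, detergent-solubilized Sf9 membrane reagent, pulled down on streptavidin microbeads and FACS-sorted into low and high (top ~1%) gates on expression and reagent-binding fluorescence. Labels for polyreactivity follow the gate of origin.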

Sequence | polyreactivity (PSR sort gate)
QVQLVESGGGLVQAGGSLRLSCAASGSTFGVYAMGWSRQAPGKERELDAAIRWSDGTTYYADSVKGRFTNSRDNAKNPVYLQMNSLKPEDTAVYYCAAVGYKRGTGRYGYWGQGTQVTVSS | high polyreactivity
QVQLVESGGGLVQAGGSLRLSCAASGNIFRRYTLGWSRQAPGKERELVAAISSGGSTNYADSVKGRFTLSRDNAKNTVYLQMNSLKPEDTAVYYCAATRRYIQYGYDYWGQGTQVTVSS | high polyreactivity
QVQLVESGGGLVQAGGSLRLSCAASGGTFWTNAMGWYRQAPGKERELVARITSGGGTNYADSVKGRFTISRDNAKNTVYVQMNSRKPEDTAVYYCAAETIYYPVAQSYYSFEYWGQGTQVTVSS | low polyreactivity
QVQLVESGGGLVQAGGSLRLSCAASGSIFGVYAMGWYRQAPGKEREFVAAITKRGGSTYYADSVKGRFTISRDNAKNTVYLQMNSLKPEDTAVYYCAARYGRYISSRYGSWGQGTQVTVSS | high polyreactivity
QVQLVESAGGLVLAGGSLRLSCAASGRIFARNAMGWYRQAAGKEREFVAGITWSGSSTYYADSVKARFTISRDNAKNTVYLQMNSLKPEDTAVYYCAVDNYVGSLRIDHDYWGLGTQVTVSS | low polyreactivity
QVQLVESGGGLVQAGGSLRLSCAASGRIFGYYAMGWYRQAPGKERELVAAISSRGSRTYYADSVKGRFTISRDNAKNTVYLQMNSLKPVDTAVYYCATYDYWGQGTQVTVSS | high polyreactivity
QVQHVESVGGLVQAGGSLRLSCAASGGIFWVYAMGWYRQAPGKERELVAAISNSDTSTSYADSVKGRFTISRDNAKNTVYLQMNSLKPEDTAVYYCNADSPSLSGDYWGQGTQVTVSS | low polyreactivity
QVQLVESGGGLVQEGGSLRLSCAASGGTFYVNDMGWYRQAPGKERELVATITSGDSTNYADSVKGRFTISRDNAKNTVYLQRNCLKPEDTAVYYCNARGDVIVTPPKFSFNYVYWGQGTQVTVSS | low polyreactivity
QVQLVESGGGLVQAGGSLRLSCAASGRIFSYYAMGWYRQAPGKERELVASITSGGSTYADSVKGRFTISRDNAKNTVYLQMNSLKPEDTAVYYCAKGYYWLSTYGDSRYGYWGQGTQVTVSS | high polyreactivity
QVQLVESGGCLVQAGGSLRLSCAASGRIFSGYVMGWYRQAPGKERELVAGITYRDGSTYYADSVKGRFTISRDKEKNTVYLQMNSLKPEDTAVYYCNADDYNDIPYDYWGQGTHVTVSS | low polyreactivity
QVQLVESGGALDQAGGSLRLICAASGRIFWYNAMGWYRQAPGKERELVAGIRSGGSTNYADSVKGRFTISRDNAKNPVYLQMNSLKPEDTAVYYCAARRWRTQDRSHFYYWGQGTQVTVSS | low polyreactivity
QVQLVESGGGLVQAGGSLRLSCAASGSTFKSYVMGWYRAAPGKERELVAAISTGDSTYYADSVKGRFTISRDNAKNTVYLQMNSLKPEDTAVYYCAADPGYTVEPWEDDYWGQGTQVTVSS | low polyreactivity
QVQLVESGGGLVQAGGSLRLSCAASGSTFIDYDMGWYRQAPGKERELVAAITSSGSTYYADSVKGRFTISRDNAKNTVYLQMNSLKPEDTAVYYCNARVGPELHDYWGQGTQVTVSS | low polyreactivity
QVQLVESGGGLVQAGGSLRLSCAASGRTFYGNAMGWYRQAPGKERELVAAISYRTGRTYYADSVKGRFTISRDNAKNTVYLQMNSLKPEDTAVYYCAADLHSRDDYWGQGTKVTVSS | high polyreactivity
QVQLVESGGGLVQAGGSLRLSCAASGFTFFSNAMGWYRQAPGKDRELVAAITSSGGSTYADSVKGRFTISRDNAKNTVYLQMNSLKPEDTAVYYCAADAQAPPCGFKEYDYWGQGTQVTVSS | low polyreactivity
QVQLVESGGGLVQAGGSLRISCAASGRTLGYNAMGWYRQAPGKERELVAAISWSGGSTYYADSVKGRFTISRDNAKNTVYLQMNSLNPEDTAVYYCAARNNRYPLYNYWGQGTQVTVSS | low polyreactivity
QVQLVESGGGLVQAGGSLRLSCAASGRIFATNAMGWYRQAPGKERELVAAISDGGGSTYYADSVKGRFTISRDNAKNTVYLQMNSLKPEDTAVYYCAARVLDWRGDIHDSEYWGQGTQVTVSS | low polyreactivity
QVQLVESGGGLVQAGGSLRLSCAASGSIFGEYAMGWYRQAPGKERELVADITTGGNTNYADSVKGRFTISRDYAKNTVYLQMNSLKPEDTAVYYCADEANYYVIFHGSWYTDDYWGQGTQVTVSS | low polyreactivity
QVQLVESGGGLVQAGGSLRLSCAASGRIFKGYAMGWYRQAPGKESELVAAITWRGGTTYYADSVKGRFTISRDNAKNTVYLQMNSLKPEDTAVYYCARARPTGYNYWGQGTQVTVSS | high polyreactivity
QVQLVESGGGLVQAGGSLRLSCAASGSIISRNAMGWYRQAPGKEREFVAAITRSGGSTSYADSVKGRFTISRDNAKSTVYLQMNSLKPEDTAVYYCAAAQKYRKEFDSWGQGTQVTVSS | high polyreactivity
QVQLVESGGGLVQAGGSLRLSCAASGSIFNYYAMGWYRQAPGKERELVAAITTSGGNTYYADSVKGRFTISRDNAKNTVYLQMNSLKPEDTAVYYCNTVYAGAAWYQYGYWGQGTQVTVSS | low polyreactivity
QVQIVASWGGLVQAGGSLRLSCAATGRIFEINAMGWYRQAPGKERELVAAITRSGGSTYYADSVKGRFTISRDYAKNTVYVQMNSLKPEDTAVYYCAARGRYWYSRYYSWGQGTQVTVSA | high polyreactivity

Sequence | polyreactivity (PSR sort gate)
QVQLVESGGGLVQAGGSLRLSCAASGSIFRLNVMGWYRQAPGKERELVAVITGSGTRTNYADSVKGRFTISRDNAKNTVYLQMNSLKPEDTAVYYCNRVTTPTVTYGYGKMDYWGHGTQVTVSS | high polyreactivity
QVQLVESGGGLVQAGGSLRLSCAASGITIKYYTMGWYRQAPGKERELVAAISRSGGSTYYADSVKGRFTISRDNAKNTVYLQMNSLIPEDTAVYYCAAERGAYRGVTFTYGYWGQGTQVTVSS | high polyreactivity
QVQLVDSGGGLVQAGGSLRLSCAASGRIFYFNAMGWYREAPGKERELVAAISKSGGSTYYADSVKGRFTISRDNAKNTVYLQMNSLKPEDTAVYYCAAGFWYYSYPTLYEYGYWGQGTQVTVSS | low polyreactivity
QVQLVESGGGLVQAGGSLRLSCAASGITFKWNALGWYRQAPGKERELVAVISSDGRTYYADSVKWRFTISRDKAKNTVYLQMNSLKPEDTAVYYCNADRSVIHRGYIWQPGRNDYWGQGTQVTVSS | low polyreactivity
QVQLVESGGGLVQAGGSLRISCAASGRIFFIKAMGWYRQAPGKERELVAAIRRDTRTYYADSVKGRFTISRDNAKNTVYLQMNSLKPEDTAVYYCAADDPWHYDFDYWGQGTQVTVSS | low polyreactivity
QVQLVESGGGLVQAGGSLRLSCAASGYTYPQNAMGWYIKAPGKERDLFAAISRSGGSTNYADSVKGRNTISRDNAKNTVYLQMNILKPEDTAVYYCARYNYTRQTRVEYGYWGQCTQVTVSS | high polyreactivity
QVQLVESGGGLVQAGGSLRLSCAASGIIFRRYAMGWYRQAPVKERELVAAITRGGITYYADSVKGRFTISRDNAKNTVYLQMNSLKPEDTAVYYCAALAYPQEYDYWGQGTQVTVSS | low polyreactivity
QVQLVESGGGLVQAGGSLRLSCAASGRIFNVNAMGWYRQAPGKERDLVARIDTGVGTKYADSVKGRFTISRDNAKNTVYLQMNSLKPEDTAVYYCAARSFSGYGYLVRPKWYYYWGQGTQVTVSS | high polyreactivity
QVQLVESGGGLVQAGGSLRLSCAASGSTFDYYAMGWYRQAPGKVRELGAAITTSGGSTYYADSVKGRFTISRDNAKNTVYLQINCLKPEDTAVYYCAAESYWYGTSPYYYLYEYDYWGQGTQVTVSS | high polyreactivity
QVQLVESGGGLVQAGGSLRLSCAASGSIFEPYAMGWYRQAPGKERELVAAISSGTSTYYADSVKGRFTISRDNAKNTVYLQLNSLKPEDTAVYYCAAEEQIPWTNNAKYYYWGQGTQVTVSS | low polyreactivity
QVQLVESGGGLVQAGGSLRLSCAASGRTFGYYAMGWYRQAPGKERELVAAISWRTVSTHYADSVKGRFTISRDNAKNTVYLQMNSLKPEDTAVYYCAARWGKIRGFHLDYWGQGTQVTVSS | high polyreactivity
QVQLVESGGGLVQAGGSLRLSCAASGFTFWIYAMGWYRQAPGKERELVAVISRGGSTYYADSVKGRFTISRDNAKNTVYLQMNSLKPEDTAVYYCNAVGVRGYDYWGQGTQVTVSS | high polyreactivity
QVQLVESGGGLVQAGGSLRLSCAASGRIFLLNAMGWYRQAPGKERELVARISSGRTYYADSVKGRFTISRDNAKNTVYLNMNSLKPEDTAVYYCNATVSSSKYRYFYVNPYYYWGQGTQVTVSS | low polyreactivity
QVQLVESGGGLVQAGGSLRLSCPASGFIIRLYVMGWYRQAPGKERELVAAISSGGRTYYADSVKGRFTISRDNAKNTVYLQMNSLKPEDTAVYYCAAYVRGWGCDDFWGQGSQVTVSS | high polyreactivity
QVQLVESGGGLVQAGGSLRLSCAASGSIFYDYAMGWYSQEPGKERELVAAISSSGITYYADSVKGRFTISRDNAKTTVYLQMNSLKPEDTAVYYCNARSYLRDYDYWGQGTQVTVTS | high polyreactivity
QVQLVESSGGLVQAGGSLRLSCAASGRTFSRNAMGWYRQAPGKERELVAAITYSGGTTYYADSVKGRFTISRDNAKNTVYLQMNSLKPEDTAVYYCATPSRKSGVGYPSYNYWGQGTQVTVSS | high polyreactivity
QVQLVESGGGLVQAGGSLRLSCAASGSIFIANAMGWYRQAPGKERELVAAITLNGGSTYYADSVKGRFTISRDNAKNTVYLQMNSLKPEDTAVYYCAADWVWVAPQYWIDEYDYWGQGTQVTVSS | low polyreactivity
QVQLVESGGGLVQAGGSLRLSCAASGFIFGRYAMGWYRQAPGKERELVAAITRSGGTTYYADSVKGRFTISRDNAKKTVYLQMYSLKPEDTAVYYCAAPRIYYTDDYWGQGTQVTVSS | high polyreactivity
QVQLVESGGGLVQAGGSLRLSCAASGSIFASYAMGWYRQAPGKERELVAAIRSSGGRTYYADSVKGRFTISRDNAKYTVYLQMYSLKPEDTAVYYCNDRRPGYRPYGYDYWGQGTQVTVSS | high polyreactivity
QVQLVESGAGLVQAGGSLRLSCAASGSTFSRYAMGWYRQAPGKERELVAAISRRGGSTYYSDSVKGRFTISRDNSKNTVYLQKISLKPEDTAVYYCAADPQPSSDRGTYDYWGQGTQVSVSS | high polyreactivity
QVLLVESGGGLVQAGGSLRLSCAASGRTSFQYAMGWYSQAPGTDRELVAALSWSGGATVYADSVKGRFTISRDNAKNTDYLQMNSLKPEDTAVYYCAKRRRLDQNTCYGLDYWGQGTQGTVSS | low polyreactivity
